In US20230235013A1 (MABSOLVE, published 2023):

Tests used:
[1] = biological target: T1, Histidine-tagged recombinant human FcγRI (CD64) (human, UniProt P12314 16-288, limits assumed); assay: SPR, His-FcγRI captured; Expt 3;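 further: biacore T200 SPR at 25 °C, Fc-variant antibodies at 100 µg/mL flowed 1 min over anti-His-captured FcγRI, signal taken just before injection end minus a buffer blank cycle; antibody analyte injected at 100 µg/mL for 1 min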
T1 construct: bought
Protocol: (§1) Binding analysis was carried out by surface plasmon resonance at 25° C. using a Biacore® T200 instrument with Biacore® T200 control software. The sample compartment was held at 5° C. The running buffer (HBS-EP+) consisted of 0.01 M HEPES pH 7.4, containing 0.15 M NaCl, 3 mM EDTA, and 0.05% v/v Surfactant P20. Methods were run using the manufacturer's standard method wizards as described in the Biacore® T200 Instrument Handbook.
(§2) The cell was activated by treatment with EDC/NHS for 7 min. The antibody was diluted to 10 μg/mL in 10 mM sodium acetate pH 5.0 and injected for 7 min at 5 μL/min. The flow cell was deactivated by injection of 1M ethanolamine for 7 min. This process was repeated in the absence of anti-his antibody on a separate flow cell to generate a reference surface. […] Samples of purified antibodies comprising variant Fc regions (1 mg/mL in PBS) were diluted with running buffer to 100 μg/mL and were injected for 1 min at 30 μL/min and allowed to disassociate for 2 min. Between each cycle, the chip was regenerated by injection of 10 mM glycine pH 3.0 for 0.5 min at a flow rate of 30 μL/min and recharged with a fresh injection of FcγRI. At the beginning of each experiment, three blank cycles were run, with buffer alone being injected instead of test sample. The average SPR signal (relative to the reference cell) was measured in a window approximately 8 to 13 seconds before the injection of test sample (baseline) and approximately 3 to 8 seconds before the end of injection (response). The response of the third of the blank (buffer) samples was subtracted from the response of each test sample in order to allow for any dissociation of the bound FcγRI giving a corrected response for each test sample. The whole experiment was repeated three times with the test samples being analysed in different orders each time.

[2] = biological target: T1, Histidine-tagged recombinant human …; assay: SPR, His-FcγRI captured; Expt 2;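 further: biacore T200 SPR at 25 °C, Fc-variant antibodies at 100 µg/mL flowed 1 min over anti-His-captured receptor, signal read near injection end minus third buffer blank; antibody analyte injected at 100 µg/mL for 1 min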
[3] = biological target: T1, Histidine-tagged recombinant human …; assay: SPR, His-FcγRI captured; mean;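 further: biacore T200 SPR at 25 °C, anti-His surface capturing FcγRI, Fc-variant antibodies injected at 100 µg/mL for 1 min, signal near injection end minus third buffer blank, three repeats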
Protocol: as §1, §2

human FcγRIIIA (F158) = biological target: T2, human FcγRIIIA (F158) (human, UniProt P08637 17-208); assay: SPR, FcγRIIIA captured; further: test concentration or dose not given here
T2 construct: bought; F158 allele

[4] = biological target: T1, Histidine-tagged recombinant human …; assay: SPR, His-FcγRI captured; Expt 1;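 further: SPR at 25 °C on anti-His antibody chip capturing FcγRI, Fc-variant antibodies injected at 100 µg/mL for 1 min, signal near end of injection minus buffer blank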

T2 sequence (P08637 17-208 limits assumed): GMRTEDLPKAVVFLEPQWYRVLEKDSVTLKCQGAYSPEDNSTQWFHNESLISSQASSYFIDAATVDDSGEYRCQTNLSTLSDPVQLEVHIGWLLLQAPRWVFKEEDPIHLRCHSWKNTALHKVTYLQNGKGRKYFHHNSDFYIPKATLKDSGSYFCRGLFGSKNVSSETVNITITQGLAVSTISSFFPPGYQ

B1: anti-CD20 human IgG1 L234R/L235H/G236R (antibody)
heavy: QVQLQQPGAELVKPGASVKMSCKASGYTFTSYNMHWVKQTPGRGLEWIGAIYPGNGDTSYNQKFKGKATLTADKSSSTAYMQLSSLTSEDSAVYYCARSTYYGGDWYFNVWGAGTTVTVSSASTKGPSVFPLAPSSKSTSGGTAALGCLVKDYFPEPVTVSWNSGALTSGVHTFPAVLQSSGLYSLSSVVTVPSSSLGTQTYICNVNHKPSNTKVDKKVEPKSCDKTHTCPPCPAPERHRGPSVFLFPPKPKDTLMISRTPEVTCVVVDVSHEDPEVKFNWYVDGVEVHNAKTKPREEQYNSTYRVVSVLTVLHQDWLNGKEYKCKVSNKALPAPIEKTISKAKGQPREPQVYTLPPSRDELTKNQVSLTCLVKGFYPSDIAVEWESNGQPENNYKTTPPVLDSDGSFFLYSKLTVDKSRWQQGNVFSCSVMHEALHNHYTQKSLSLSPGK
light: QIVLSQSPAILSASPGEKVTMTCRASSSVSYIHWFQQKPGSSPKPWIYATSNLASGVPVRFSGSGSGTSYSLTISRVEAEDAATYYCQQWTSNPPTFGGGTKLEIKRTVAAPSVFIFPPSDEQLKSGTASVVCLLNNFYPREAKVQWKVDNALQSGNSQESVTEQDSKDSTYSLSSTLTLSKADYEKHKVYACEVTHQGLSSPVTKSFNRGEC
notes: also called 2-38
- Corrected response (RU) [1]: 2.3 RU
- Corrected response (RU) [2]: 0.7 RU
- Corrected response (RU), Mean [3]: 0.6 RU
- Corrected response (RU) (human FcγRIIIA (F158)): 3.9 RU
- Corrected response (RU) [4]: -1.2 RU

B2: anti-CD20 human IgG1 L234T/L235R/G236R (antibody)
heavy: QVQLQQPGAELVKPGASVKMSCKASGYTFTSYNMHWVKQTPGRGLEWIGAIYPGNGDTSYNQKFKGKATLTADKSSSTAYMQLSSLTSEDSAVYYCARSTYYGGDWYFNVWGAGTTVTVSSASTKGPSVFPLAPSSKSTSGGTAALGCLVKDYFPEPVTVSWNSGALTSGVHTFPAVLQSSGLYSLSSVVTVPSSSLGTQTYICNVNHKPSNTKVDKKVEPKSCDKTHTCPPCPAPETRRGPSVFLFPPKPKDTLMISRTPEVTCVVVDVSHEDPEVKFNWYVDGVEVHNAKTKPREEQYNSTYRVVSVLTVLHQDWLNGKEYKCKVSNKALPAPIEKTISKAKGQPREPQVYTLPPSRDELTKNQVSLTCLVKGFYPSDIAVEWESNGQPENNYKTTPPVLDSDGSFFLYSKLTVDKSRWQQGNVFSCSVMHEALHNHYTQKSLSLSPGK
light: QIVLSQSPAILSASPGEKVTMTCRASSSVSYIHWFQQKPGSSPKPWIYATSNLASGVPVRFSGSGSGTSYSLTISRVEAEDAATYYCQQWTSNPPTFGGGTKLEIKRTVAAPSVFIFPPSDEQLKSGTASVVCLLNNFYPREAKVQWKVDNALQSGNSQESVTEQDSKDSTYSLSSTLTLSKADYEKHKVYACEVTHQGLSSPVTKSFNRGEC
notes: also called 2-61
- Corrected response (RU) [1]: 3.5 RU
- Corrected response (RU) [2]: 1.6 RU
- Corrected response (RU), Mean [3]: 1.8 RU
- Corrected response (RU) (human FcγRIIIA (F158)): 3.8 RU
- Corrected response (RU) [4]: 0.2 RU

B3: anti-CD20 human IgG1 L234T/L235K/G236R (antibody)
heavy: QVQLQQPGAELVKPGASVKMSCKASGYTFTSYNMHWVKQTPGRGLEWIGAIYPGNGDTSYNQKFKGKATLTADKSSSTAYMQLSSLTSEDSAVYYCARSTYYGGDWYFNVWGAGTTVTVSSASTKGPSVFPLAPSSKSTSGGTAALGCLVKDYFPEPVTVSWNSGALTSGVHTFPAVLQSSGLYSLSSVVTVPSSSLGTQTYICNVNHKPSNTKVDKKVEPKSCDKTHTCPPCPAPETKRGPSVFLFPPKPKDTLMISRTPEVTCVVVDVSHEDPEVKFNWYVDGVEVHNAKTKPREEQYNSTYRVVSVLTVLHQDWLNGKEYKCKVSNKALPAPIEKTISKAKGQPREPQVYTLPPSRDELTKNQVSLTCLVKGFYPSDIAVEWESNGQPENNYKTTPPVLDSDGSFFLYSKLTVDKSRWQQGNVFSCSVMHEALHNHYTQKSLSLSPGK
light: QIVLSQSPAILSASPGEKVTMTCRASSSVSYIHWFQQKPGSSPKPWIYATSNLASGVPVRFSGSGSGTSYSLTISRVEAEDAATYYCQQWTSNPPTFGGGTKLEIKRTVAAPSVFIFPPSDEQLKSGTASVVCLLNNFYPREAKVQWKVDNALQSGNSQESVTEQDSKDSTYSLSSTLTLSKADYEKHKVYACEVTHQGLSSPVTKSFNRGEC
notes: also called 2-58
- Corrected response (RU) [1]: 4.5 RU
- Corrected response (RU) [2]: 2.4 RU
- Corrected response (RU), Mean [3]: 2.7 RU
- Corrected response (RU) (human FcγRIIIA (F158)): 3.5 RU
- Corrected response (RU) [4]: 1.1 RU

B4: anti-CD20 human IgG1 L234S/L235H/G236R (antibody)
heavy: QVQLQQPGAELVKPGASVKMSCKASGYTFTSYNMHWVKQTPGRGLEWIGAIYPGNGDTSYNQKFKGKATLTADKSSSTAYMQLSSLTSEDSAVYYCARSTYYGGDWYFNVWGAGTTVTVSSASTKGPSVFPLAPSSKSTSGGTAALGCLVKDYFPEPVTVSWNSGALTSGVHTFPAVLQSSGLYSLSSVVTVPSSSLGTQTYICNVNHKPSNTKVDKKVEPKSCDKTHTCPPCPAPESHRGPSVFLFPPKPKDTLMISRTPEVTCVVVDVSHEDPEVKFNWYVDGVEVHNAKTKPREEQYNSTYRVVSVLTVLHQDWLNGKEYKCKVSNKALPAPIEKTISKAKGQPREPQVYTLPPSRDELTKNQVSLTCLVKGFYPSDIAVEWESNGQPENNYKTTPPVLDSDGSFFLYSKLTVDKSRWQQGNVFSCSVMHEALHNHYTQKSLSLSPGK
light: QIVLSQSPAILSASPGEKVTMTCRASSSVSYIHWFQQKPGSSPKPWIYATSNLASGVPVRFSGSGSGTSYSLTISRVEAEDAATYYCQQWTSNPPTFGGGTKLEIKRTVAAPSVFIFPPSDEQLKSGTASVVCLLNNFYPREAKVQWKVDNALQSGNSQESVTEQDSKDSTYSLSSTLTLSKADYEKHKVYACEVTHQGLSSPVTKSFNRGEC
notes: also called 2-48
- Corrected response (RU) [1]: 3.9 RU
- Corrected response (RU) [2]: 1.1 RU
- Corrected response (RU), Mean [3]: 1.8 RU
- Corrected response (RU) (human FcγRIIIA (F158)): 3.7 RU
- Corrected response (RU) [4]: 0.4 RU

B5: anti-CD20 human IgG1 L234T/L235Q/G236R (antibody)
heavy: QVQLQQPGAELVKPGASVKMSCKASGYTFTSYNMHWVKQTPGRGLEWIGAIYPGNGDTSYNQKFKGKATLTADKSSSTAYMQLSSLTSEDSAVYYCARSTYYGGDWYFNVWGAGTTVTVSSASTKGPSVFPLAPSSKSTSGGTAALGCLVKDYFPEPVTVSWNSGALTSGVHTFPAVLQSSGLYSLSSVVTVPSSSLGTQTYICNVNHKPSNTKVDKKVEPKSCDKTHTCPPCPAPETQRGPSVFLFPPKPKDTLMISRTPEVTCVVVDVSHEDPEVKFNWYVDGVEVHNAKTKPREEQYNSTYRVVSVLTVLHQDWLNGKEYKCKVSNKALPAPIEKTISKAKGQPREPQVYTLPPSRDELTKNQVSLTCLVKGFYPSDIAVEWESNGQPENNYKTTPPVLDSDGSFFLYSKLTVDKSRWQQGNVFSCSVMHEALHNHYTQKSLSLSPGK
light: QIVLSQSPAILSASPGEKVTMTCRASSSVSYIHWFQQKPGSSPKPWIYATSNLASGVPVRFSGSGSGTSYSLTISRVEAEDAATYYCQQWTSNPPTFGGGTKLEIKRTVAAPSVFIFPPSDEQLKSGTASVVCLLNNFYPREAKVQWKVDNALQSGNSQESVTEQDSKDSTYSLSSTLTLSKADYEKHKVYACEVTHQGLSSPVTKSFNRGEC
notes: also called 2-60
- Corrected response (RU) [1]: 4.5 RU
- Corrected response (RU) [2]: 2.3 RU
- Corrected response (RU), Mean [3]: 3 RU
- Corrected response (RU) (human FcγRIIIA (F158)): 3 RU
- Corrected response (RU) [4]: 2.2 RU
